The values below come from article PMC7666136.

In experiment [1] the target is T1, eGFP-53BP1 (wild-type TP53-binding protein 1 tagged with enhanced green fluorescent protein), Q12888.
T1 chain: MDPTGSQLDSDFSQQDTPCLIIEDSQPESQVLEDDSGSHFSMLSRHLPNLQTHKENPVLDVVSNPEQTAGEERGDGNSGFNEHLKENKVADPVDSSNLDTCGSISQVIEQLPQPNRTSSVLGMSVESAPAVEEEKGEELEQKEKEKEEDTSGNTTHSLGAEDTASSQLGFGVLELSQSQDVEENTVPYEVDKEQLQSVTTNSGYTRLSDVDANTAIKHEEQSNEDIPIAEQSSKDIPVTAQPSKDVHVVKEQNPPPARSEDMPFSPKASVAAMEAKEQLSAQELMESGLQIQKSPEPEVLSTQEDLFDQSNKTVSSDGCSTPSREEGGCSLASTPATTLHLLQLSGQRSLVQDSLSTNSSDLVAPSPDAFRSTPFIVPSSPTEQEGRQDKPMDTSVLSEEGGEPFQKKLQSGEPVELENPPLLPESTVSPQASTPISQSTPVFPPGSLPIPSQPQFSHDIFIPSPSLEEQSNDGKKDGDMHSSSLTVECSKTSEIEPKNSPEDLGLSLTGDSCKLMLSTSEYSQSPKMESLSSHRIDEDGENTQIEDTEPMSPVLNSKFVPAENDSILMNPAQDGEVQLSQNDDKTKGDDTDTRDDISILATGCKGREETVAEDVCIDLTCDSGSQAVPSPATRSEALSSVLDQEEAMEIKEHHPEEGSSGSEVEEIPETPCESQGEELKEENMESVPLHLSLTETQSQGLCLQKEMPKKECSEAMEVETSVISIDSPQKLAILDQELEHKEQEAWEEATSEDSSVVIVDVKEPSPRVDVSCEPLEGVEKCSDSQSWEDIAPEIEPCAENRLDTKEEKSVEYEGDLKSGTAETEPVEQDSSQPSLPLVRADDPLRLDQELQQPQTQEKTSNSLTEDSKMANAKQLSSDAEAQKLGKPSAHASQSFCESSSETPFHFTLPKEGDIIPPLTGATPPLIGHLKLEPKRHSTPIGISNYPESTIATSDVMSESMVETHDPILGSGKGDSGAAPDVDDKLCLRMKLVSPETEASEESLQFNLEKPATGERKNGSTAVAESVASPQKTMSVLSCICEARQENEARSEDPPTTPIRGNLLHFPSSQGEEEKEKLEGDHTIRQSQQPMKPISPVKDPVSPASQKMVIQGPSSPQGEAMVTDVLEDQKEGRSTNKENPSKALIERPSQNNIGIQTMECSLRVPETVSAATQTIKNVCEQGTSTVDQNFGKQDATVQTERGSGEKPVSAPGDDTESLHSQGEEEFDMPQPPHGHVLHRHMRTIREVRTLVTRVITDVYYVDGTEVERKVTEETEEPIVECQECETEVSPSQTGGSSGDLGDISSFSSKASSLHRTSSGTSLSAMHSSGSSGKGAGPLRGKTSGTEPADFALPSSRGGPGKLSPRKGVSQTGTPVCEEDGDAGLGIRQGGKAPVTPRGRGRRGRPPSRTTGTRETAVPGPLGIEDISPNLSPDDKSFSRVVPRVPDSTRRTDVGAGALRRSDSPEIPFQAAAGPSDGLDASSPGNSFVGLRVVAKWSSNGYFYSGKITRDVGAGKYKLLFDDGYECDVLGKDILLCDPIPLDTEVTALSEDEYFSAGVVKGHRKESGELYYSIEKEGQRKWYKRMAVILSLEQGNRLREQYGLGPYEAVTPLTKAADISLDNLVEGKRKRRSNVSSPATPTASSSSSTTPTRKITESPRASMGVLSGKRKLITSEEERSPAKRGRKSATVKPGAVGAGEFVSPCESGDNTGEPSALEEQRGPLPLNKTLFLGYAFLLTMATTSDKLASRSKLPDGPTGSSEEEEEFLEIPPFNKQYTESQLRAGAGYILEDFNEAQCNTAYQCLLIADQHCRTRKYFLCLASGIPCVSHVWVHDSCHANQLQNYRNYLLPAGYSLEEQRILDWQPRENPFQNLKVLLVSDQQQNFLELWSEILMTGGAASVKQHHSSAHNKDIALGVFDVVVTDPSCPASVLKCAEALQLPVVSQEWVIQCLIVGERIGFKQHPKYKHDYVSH
The experiment can be described thus: cross-pair correlation function (cross-pCF) analysis, two-colour fluorescence cross-correlation; two-channel line scans in live DIvA cells co-transfected with eGFP- and mKate2-tagged copies of the same 53BP1 construct, treated with 4OHT for 60 min; dimer fraction from cross pCF0 against pCF0, corrected for spectral bleed through. The note with it: remark: other sources report otherwise.

The target in experiment [2] is T1, eGFP-53BP1 (wild-type TP53-binding …). The experiment can be described thus: Number and Brightness (NB) analysis of fluorescence fluctuation spectroscopy; frame scans in nuclei of live DIvA cells expressing eGFP-tagged 53BP1 constructs, 37 °C, brightness windows calibrated on free eGFP (B monomer 1.15, dimer 1.30, oligomer >1.60); before and 30-60 min after 4OHT induction of DSBs; also after knockdown of endogenous 53BP1. The note with it: remark: other sources report otherwise.

B1: eGFP-53BP1 (wild-type TP53-binding protein 1 tagged with enhanced green fluorescent protein), Q12888 1-1972 (natural protein)
chain: MDPTGSQLDSDFSQQDTPCLIIEDSQPESQVLEDDSGSHFSMLSRHLPNLQTHKENPVLDVVSNPEQTAGEERGDGNSGFNEHLKENKVADPVDSSNLDTCGSISQVIEQLPQPNRTSSVLGMSVESAPAVEEEKGEELEQKEKEKEEDTSGNTTHSLGAEDTASSQLGFGVLELSQSQDVEENTVPYEVDKEQLQSVTTNSGYTRLSDVDANTAIKHEEQSNEDIPIAEQSSKDIPVTAQPSKDVHVVKEQNPPPARSEDMPFSPKASVAAMEAKEQLSAQELMESGLQIQKSPEPEVLSTQEDLFDQSNKTVSSDGCSTPSREEGGCSLASTPATTLHLLQLSGQRSLVQDSLSTNSSDLVAPSPDAFRSTPFIVPSSPTEQEGRQDKPMDTSVLSEEGGEPFQKKLQSGEPVELENPPLLPESTVSPQASTPISQSTPVFPPGSLPIPSQPQFSHDIFIPSPSLEEQSNDGKKDGDMHSSSLTVECSKTSEIEPKNSPEDLGLSLTGDSCKLMLSTSEYSQSPKMESLSSHRIDEDGENTQIEDTEPMSPVLNSKFVPAENDSILMNPAQDGEVQLSQNDDKTKGDDTDTRDDISILATGCKGREETVAEDVCIDLTCDSGSQAVPSPATRSEALSSVLDQEEAMEIKEHHPEEGSSGSEVEEIPETPCESQGEELKEENMESVPLHLSLTETQSQGLCLQKEMPKKECSEAMEVETSVISIDSPQKLAILDQELEHKEQEAWEEATSEDSSVVIVDVKEPSPRVDVSCEPLEGVEKCSDSQSWEDIAPEIEPCAENRLDTKEEKSVEYEGDLKSGTAETEPVEQDSSQPSLPLVRADDPLRLDQELQQPQTQEKTSNSLTEDSKMANAKQLSSDAEAQKLGKPSAHASQSFCESSSETPFHFTLPKEGDIIPPLTGATPPLIGHLKLEPKRHSTPIGISNYPESTIATSDVMSESMVETHDPILGSGKGDSGAAPDVDDKLCLRMKLVSPETEASEESLQFNLEKPATGERKNGSTAVAESVASPQKTMSVLSCICEARQENEARSEDPPTTPIRGNLLHFPSSQGEEEKEKLEGDHTIRQSQQPMKPISPVKDPVSPASQKMVIQGPSSPQGEAMVTDVLEDQKEGRSTNKENPSKALIERPSQNNIGIQTMECSLRVPETVSAATQTIKNVCEQGTSTVDQNFGKQDATVQTERGSGEKPVSAPGDDTESLHSQGEEEFDMPQPPHGHVLHRHMRTIREVRTLVTRVITDVYYVDGTEVERKVTEETEEPIVECQECETEVSPSQTGGSSGDLGDISSFSSKASSLHRTSSGTSLSAMHSSGSSGKGAGPLRGKTSGTEPADFALPSSRGGPGKLSPRKGVSQTGTPVCEEDGDAGLGIRQGGKAPVTPRGRGRRGRPPSRTTGTRETAVPGPLGIEDISPNLSPDDKSFSRVVPRVPDSTRRTDVGAGALRRSDSPEIPFQAAAGPSDGLDASSPGNSFVGLRVVAKWSSNGYFYSGKITRDVGAGKYKLLFDDGYECDVLGKDILLCDPIPLDTEVTALSEDEYFSAGVVKGHRKESGELYYSIEKEGQRKWYKRMAVILSLEQGNRLREQYGLGPYEAVTPLTKAADISLDNLVEGKRKRRSNVSSPATPTASSSSSTTPTRKITESPRASMGVLSGKRKLITSEEERSPAKRGRKSATVKPGAVGAGEFVSPCESGDNTGEPSALEEQRGPLPLNKTLFLGYAFLLTMATTSDKLASRSKLPDGPTGSSEEEEEFLEIPPFNKQYTESQLRAGAGYILEDFNEAQCNTAYQCLLIADQHCRTRKYFLCLASGIPCVSHVWVHDSCHANQLQNYRNYLLPAGYSLEEQRILDWQPRENPFQNLKVLLVSDQQQNFLELWSEILMTGGAASVKQHHSSAHNKDIALGVFDVVVTDPSCPASVLKCAEALQLPVVSQEWVIQCLIVGERIGFKQHPKYKHDYVSH
With B1, the fraction of 53BP1 dimer (cross pCF0 against pCF0) in experiment [1] turned out to be 31%. In experiment [2], the fraction of dimer (NB, percent of pixels) worked out at 26%; the fraction of oligomer (NB, percent of pixels) came out at 2%; the stoichiometry N is 2.
